From article PMC3753650

Key:
[1] = target: T1, RNA polymerase sigma70 holoenzyme, molecular beacon derivative (Ec Esigma70 beacon) (Escherichia coli) (UniProt P0A7Z4+P0A7Z4+P0A8V2+P0A8T7+P0A800+P00579); test: RNAP beacon fluorescence; settings: Equilibrium RNAP molecular beacon fluorescence, 25 C and 1 nM RNAP in competition assays, buffer, salt and pH not in material, Kd error 20% (>0.4 nM), ~50% …
[2] = target: T1, RNA polymerase sigma70 holoenzyme, molecular beacon derivative (Ec Esigma70 beacon) (Escherichia coli); test: competition; settings: Equilibrium RNAP molecular beacon fluorescence; 25 C and 1 nM RNAP in competition assays; buffer, salt and pH not in material; Kd error 20% (>0.4 nM), ~50% …

Sequence: AAAAAAAGAATTTGACATCAGGAAAATTTTTTGGTTGCT / ACCAAAAAATTTTCCTGATGTCAAATTCTTTTTTT [probe 26]
- Kd [1]: < 0.1 nM

Sequence: TATTTGACATCAGGAAAATTTTTCTGTATAA / ACAGAAAAATTTTCCTGATGTCAAATA [probe 5]
- binding signal (fold tighter than probe 2) [2]: 50

Sequence: TATTTGACATCAGGAAAATTTTTCTGTT / ACAGAAAAATTTTCCTGATGTCAAATA [probe 2(-11T)]
- binding signal (fold weaker than probe 2) [1]: 5

Sequence: AAAAAAAGAATTTGACATCAGGAAAATTTTTTGGTTGCT (double strand) [probe 25]
- Kd [1]: 11 nM

Sequence: AAAAAAAGAATTTGACATCAGGAAAATTTTTTGGT / AGCAACCAAAAAATTTTCCTGATGTCAAATTCTTTTTTT [probe 27]
- Kd [1]: < 0.1 nM

Sequence: TATTTGACATCAGGAAAATTTTTTGGAATAA / TCCAAAAAATTTTCCTGATGTCAAATA [probe 17(-12A)]
- binding signal (fold tighter than 16(-12A)) ([1]; strongly weaker than probe 17): 6

Sequence: TATAATGGGTTCAT [probe 30]
- Kd [1]: 73 nM

Sequence: TGGTTGACTTTTGCCAGATACTGAGGCTGGCA / GCCTCAGTATCTGGCAAAAGTCAACCA [probe 12(-7A)]
- Kd [1]: 100 nM

Sequence: TATTTGACATCAGGAAAATTTTTCTGTATAA / CAGAAAAATTTTCCTGATGTCAAATA [probe 31]
- binding signal (fold weaker than probe 5) [2]: 10

Sequence: TATTTGACATCAGGAAAATTTTTCTGTA / TTATACAGAAAAATTTTCCTGATGTCAAATA [probe 28]
- binding signal (fold tighter than probe 19) [1]: 5

Sequence: TATTTGACATCAGGAAAATTTTTCTGTAGTTA / ACAGAAAAATTTTCCTGATGTCAAATA [probe 10(-7A)]
- binding signal (fold weaker than probe 10) [1]: 8

Sequence: TATTTGACATCAGGAAAATTTTTTGGAATAAT / TCCAAAAAATTTTCCTGATGTCAAATA [probe 18(-12A)]
- binding signal (fold tighter than 17(-12A)) [1]: 300

Sequence: GGAAAATTTTTTGGTATAAAAGA / ACCAAAAAATTTTCC [probe 9(-7A)]
- binding signal (fold weaker than probe 9) [1]: 710

Sequence: TATTTGACATCAGGAAAATTTTTCTGTTTAA / ACAGAAAAATTTTCCTGATGTCAAATA [probe 5(-11T)]
- binding signal (fold weaker than probe 5) [1]: 200

Sequence: TATTTGACATCAGGAAAATTTTTCTGTTTAAA / ACAGAAAAATTTTCCTGATGTCAAATA [probe 6(-11T,-7A)]
- binding signal (fold weaker than probe 6(-11T)) [1]: 110

Sequence: GGAAAATTTTTTGGTTTAATAGA / ACCAAAAAATTTTCC [probe 9(-11T)]
- binding signal (fold weaker than probe 9) [1]: 300

Sequence: TATTTGACATCAGGAAAATTTTTCTGTTTAAT (double strand) [probe 23(-11T)]
- Kd [1]: 16 nM

Sequence: TATTTGACATCAGGAAAATTTTTCTGTA / ATTATACAGAAAAATTTTCCTGATGTCAAATA [probe 29]
- binding signal (fold tighter than probe 19) [1]: 13

Sequence: TGGTTGACTTTTGCCAGATACTGAGGCTGGCT / GCCTCAGTATCTGGCAAAAGTCAACCA [probe 12]
- Kd [1]: 11 nM

Sequence: TGGTTGACTTTTGCCAGATACTGAGGCTGGC / GCCTCAGTATCTGGCAAAAGTCAACCA [probe 13]
- Kd [1]: 100 nM

Sequence: TATTTGACATCAGGAAAATTTTTCTGT (double strand) [probe 1]
- Kd [1]: 62 nM

Sequence: TATTTGACATCAGGAAAATTTTTCTGTTGTTA / ACAGAAAAATTTTCCTGATGTCAAATA [probe 11(-7A)]
- binding signal (fold weaker than probe 11) [1]: 2.4

Sequence: TATTTGACATCAGGAAAATTTTTCTGTTTAA (double strand) [probe 22(-11T)]
- Kd [1]: 120 nM

Sequence: AAAAAAAGAATTTGACATCAGGAAAATTTTTTGGT (double strand) [probe 24]
- Kd [1]: 0.19 nM

Sequence: TATTTGACATCAGGAAAATTTTTCTGTTT / ACAGAAAAATTTTCCTGATGTCAAATA [probe 3(-11T)]
- binding signal (fold weaker than probe 3) [1]: 5

Sequence: TATTTGACATCAGGAAAATTTTTTGGA (double strand) [probe 15(-12A)]
- binding signal (fold weaker than probe 15) [1]: 4

Sequence: TATTTGACATCAGGAAAATTTTTCTGTTTAAT / ACAGAAAAATTTTCCTGATGTCAAATA [probe 6(-11T)]
- binding signal (fold weaker than probe 6) ([1]; ~120-fold tighter than 5(-11T)): 1000

Sequence: TATTTGCTTTCAGGAAAATTTTTCTGTATAAA / CAGAAAAATTTTCCTGAAAGCAAATA [probe 8(-7A)]
- binding signal (fold weaker than probe 8) [1]: 210
